Results taken from publication PMC11754109 (Nature, 2025).

B1: FeSII protein (Shethna protein II) of Azotobacter vinelandii (natural protein)
chain: MATIYFSSPLMPHNKKVQAVAGKRSTLLGVAQENGVKIPFECQDGNCGSCLVKITHLDGERIKGMLLTDKERNVLKSVGKLPKSEEERAAVRDLPPTYRLACQTIVTDEDLLVEFTGEPGGA

Columns and labels:
[1] = molecular target: Fe protein NifH2 of Mo-nitrogenase (Azotobacter vinelandii); test: SEC-MALS
SEC-MALS = molecular target: the molecule itself; test: SEC-MALS

| Molecule | stoichiometry N (chains per oligomer) [1] | stoichiometry N (SEC-MALS) | stoichiometry N (NifH2 dimers per FeSII2 dimer) [1] |
| --- | --- | --- | --- |
| Fe protein NifH2 of Mo-nitrogenase (natural protein) | 2 |  |  |
| B1 |  | 2 chains per oligomer | 1 |
